10 substances from PMC11741606 can be followed below.

The Kd is the free concentration of one partner at which half of the binding sites on the other are occupied at equilibrium, for simple one-to-one binding.

Experiment [1] deals with PDCoV RBD (receptor-binding domain of the porcine deltacoronavirus spike protein). In words: SPR. (Surface plasmon resonance follows binding to a sensor surface in real time, without labels.)
In experiment [2] the target is dog aminopeptidase N ectodomain fused with the Fc domain of human IgG (dog (Canis lupus familiaris)) (UniProt P79143). In words: SPR; hFc-tagged APN from concentrated supernatant captured on a protein A sensor chip (>1000 RU); serially diluted RBD flowed over in PBST; BIAcore 8K, single-cycle mode; 1:1 Langmuir model; mean ± SD of three experiments.
In experiment [3] the target is pig aminopeptidase N ectodomain fused with the Fc domain of human IgG (pig (Sus scrofa)) (UniProt P15145). The experiment is described as above.
pig aminopeptidase N ectodomain fused with the Fc domain of human IgG (pig (Sus scrofa)), sequence (P15145 33-963): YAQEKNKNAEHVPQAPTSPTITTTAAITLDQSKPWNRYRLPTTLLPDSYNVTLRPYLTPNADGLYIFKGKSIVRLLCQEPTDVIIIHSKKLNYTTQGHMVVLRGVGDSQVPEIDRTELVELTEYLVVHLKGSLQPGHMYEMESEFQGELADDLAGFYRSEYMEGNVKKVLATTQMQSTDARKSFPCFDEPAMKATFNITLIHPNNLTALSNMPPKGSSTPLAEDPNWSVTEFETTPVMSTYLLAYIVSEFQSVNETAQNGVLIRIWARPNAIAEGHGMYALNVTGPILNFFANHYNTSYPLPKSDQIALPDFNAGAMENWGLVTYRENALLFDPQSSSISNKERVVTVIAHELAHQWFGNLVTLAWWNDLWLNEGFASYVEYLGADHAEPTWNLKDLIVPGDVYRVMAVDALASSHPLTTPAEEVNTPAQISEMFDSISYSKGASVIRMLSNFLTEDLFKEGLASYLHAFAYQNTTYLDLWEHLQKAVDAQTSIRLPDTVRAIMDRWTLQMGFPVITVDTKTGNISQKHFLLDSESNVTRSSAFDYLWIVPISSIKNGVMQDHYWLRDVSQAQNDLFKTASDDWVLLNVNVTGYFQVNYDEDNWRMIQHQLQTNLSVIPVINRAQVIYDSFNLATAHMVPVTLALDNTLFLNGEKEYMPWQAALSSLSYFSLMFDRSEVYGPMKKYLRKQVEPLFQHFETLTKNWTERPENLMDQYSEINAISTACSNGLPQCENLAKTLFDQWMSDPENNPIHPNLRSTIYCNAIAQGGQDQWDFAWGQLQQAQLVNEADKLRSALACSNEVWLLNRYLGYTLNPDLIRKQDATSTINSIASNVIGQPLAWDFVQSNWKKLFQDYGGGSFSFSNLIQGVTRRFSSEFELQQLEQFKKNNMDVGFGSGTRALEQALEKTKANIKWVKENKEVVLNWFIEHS
In experiment [4] the target is chicken aminopeptidase N ectodomain fused with the Fc domain of human IgG (chicken (Gallus gallus)) (UniProt O57579). Described as above.
chicken aminopeptidase N ectodomain fused with the Fc domain of human IgG (chicken (Gallus gallus)), sequence (O57579 32-972): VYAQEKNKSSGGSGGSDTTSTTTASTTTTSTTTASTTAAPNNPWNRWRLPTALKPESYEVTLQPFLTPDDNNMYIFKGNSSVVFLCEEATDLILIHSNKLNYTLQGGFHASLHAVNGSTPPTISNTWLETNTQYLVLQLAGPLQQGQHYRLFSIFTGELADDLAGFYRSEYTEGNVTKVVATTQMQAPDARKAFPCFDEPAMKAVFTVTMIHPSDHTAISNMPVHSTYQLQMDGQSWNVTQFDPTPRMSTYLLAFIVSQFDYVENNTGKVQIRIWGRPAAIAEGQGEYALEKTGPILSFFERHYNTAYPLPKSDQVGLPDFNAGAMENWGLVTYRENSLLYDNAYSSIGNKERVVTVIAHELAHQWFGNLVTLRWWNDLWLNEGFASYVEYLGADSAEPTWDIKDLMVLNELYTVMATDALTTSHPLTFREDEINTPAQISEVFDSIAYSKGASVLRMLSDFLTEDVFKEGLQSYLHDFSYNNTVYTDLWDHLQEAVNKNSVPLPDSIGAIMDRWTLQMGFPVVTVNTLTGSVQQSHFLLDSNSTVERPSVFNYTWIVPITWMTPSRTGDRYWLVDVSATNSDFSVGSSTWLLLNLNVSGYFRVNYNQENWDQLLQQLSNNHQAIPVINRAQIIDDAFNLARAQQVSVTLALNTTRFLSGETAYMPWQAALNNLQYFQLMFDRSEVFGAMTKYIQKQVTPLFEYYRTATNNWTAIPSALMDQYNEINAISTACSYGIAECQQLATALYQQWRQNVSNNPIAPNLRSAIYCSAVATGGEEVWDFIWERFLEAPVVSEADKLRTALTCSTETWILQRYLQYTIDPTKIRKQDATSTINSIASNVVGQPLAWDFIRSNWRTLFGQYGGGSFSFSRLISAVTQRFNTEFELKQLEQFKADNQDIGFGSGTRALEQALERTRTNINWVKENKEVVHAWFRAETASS

Take “dog aminopeptidase N ectodomain fused with the Fc domain of human IgG (from UniProt P79143) D750E”: in experiment [1], the Kd was 0.148 µM. Still for that read-out and setting: then “dog aminopeptidase N ectodomain fused with the Fc domain of human IgG (from UniProt P79143) R325N”, with 10.5 µM. In experiment [1], “dog aminopeptidase N ectodomain fused with the Fc domain of human IgG (from UniProt P79143) Y375F” had a Kd of 0.35 µM. The same measure, in the same setting: then “dog aminopeptidase N ectodomain fused with the Fc domain of human IgG (from UniProt P79143) H751R”, with 1.45 µM.

Consider “dog aminopeptidase N ectodomain fused with the Fc domain of human IgG (from UniProt P79143) E757D”, for which, in experiment [1], the Kd came to 0.423 µM. “PDCoV RBD (receptor-binding domain of the porcine deltacoronavirus spike protein) (domain or fragment)”: the Kd in experiment [2] was found to be 0.84 µM; in experiment [3], 12.8 µM; in experiment [4], 3.03 µM. Substance “dog aminopeptidase N ectodomain fused with the Fc domain of human IgG (from UniProt P79143) T754N” yielded a Kd in experiment [1] of 4.06 µM.

On to “dog aminopeptidase N ectodomain fused with the Fc domain of human IgG (from UniProt P79143) Y797H”, for which the Kd in experiment [1] was determined as 1.22 µM. Consider “TGEV RBD (receptor-binding domain of the transmissible gastroenteritis coronavirus spike protein) (domain or fragment)”, for which the Kd was 0.02 µM in experiment [2] and 2.77 µM in experiment [3]. In turn, “dog aminopeptidase N ectodomain fused with the Fc domain of human IgG (from UniProt P79143) Q753E” returned a Kd in experiment [1] of 0.783 µM.
